Test results reported in publication PMC2945607 (Molecular cell, 2010).

Target: T1, recombinant Caulobacter FtsZ (Caulobacter crescentus, UniProt B8H080 1-508)
T1 sequence (looked up): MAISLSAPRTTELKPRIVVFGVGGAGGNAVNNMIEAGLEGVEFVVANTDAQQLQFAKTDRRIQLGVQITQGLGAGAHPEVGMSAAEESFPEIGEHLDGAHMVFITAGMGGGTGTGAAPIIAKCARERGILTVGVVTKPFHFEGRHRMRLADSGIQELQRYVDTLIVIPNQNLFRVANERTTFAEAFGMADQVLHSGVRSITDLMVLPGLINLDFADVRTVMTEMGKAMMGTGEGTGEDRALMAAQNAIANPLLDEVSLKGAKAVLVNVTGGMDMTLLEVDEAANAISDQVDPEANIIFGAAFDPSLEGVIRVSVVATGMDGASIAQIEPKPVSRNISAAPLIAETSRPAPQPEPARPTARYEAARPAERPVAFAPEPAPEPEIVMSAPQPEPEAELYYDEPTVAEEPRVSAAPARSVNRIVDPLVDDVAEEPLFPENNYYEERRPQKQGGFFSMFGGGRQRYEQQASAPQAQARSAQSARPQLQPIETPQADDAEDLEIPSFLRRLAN
Assay: right angle light scattering

B1: His6-FzlA (natural protein, Caulobacter crescentus, UniProt Q9A2C6 1-228, looked up)
chain: MSVERTLHHFPLDPASRQVRLALGEKRLPFVEMQVRYWEMPPEFTSLNPSGMPPVLVETKHQRNLVICETRAILEHIEETETEPPLLGRDPAERAEARRLLQWFDRKFDNEVNGFLLHEKMEKRLLRMGAPDLAALRQGREALRMHLGYIESLLQTRDWLAGRRMSLADFAAAAHLSVIDYFGDVPWKDFQAAKTWYMKLKSRPCFRPILADRWPGLAPAAHYDDLDF
fold increase in light scattering at steady state against FtsZ without FzlA: > 10 fold
